The test has as its target scc4_human MAU2 (UniProt Q9Y6X3).
UniProt Q9Y6X3, sequence (Q9Y6X3 whole entry): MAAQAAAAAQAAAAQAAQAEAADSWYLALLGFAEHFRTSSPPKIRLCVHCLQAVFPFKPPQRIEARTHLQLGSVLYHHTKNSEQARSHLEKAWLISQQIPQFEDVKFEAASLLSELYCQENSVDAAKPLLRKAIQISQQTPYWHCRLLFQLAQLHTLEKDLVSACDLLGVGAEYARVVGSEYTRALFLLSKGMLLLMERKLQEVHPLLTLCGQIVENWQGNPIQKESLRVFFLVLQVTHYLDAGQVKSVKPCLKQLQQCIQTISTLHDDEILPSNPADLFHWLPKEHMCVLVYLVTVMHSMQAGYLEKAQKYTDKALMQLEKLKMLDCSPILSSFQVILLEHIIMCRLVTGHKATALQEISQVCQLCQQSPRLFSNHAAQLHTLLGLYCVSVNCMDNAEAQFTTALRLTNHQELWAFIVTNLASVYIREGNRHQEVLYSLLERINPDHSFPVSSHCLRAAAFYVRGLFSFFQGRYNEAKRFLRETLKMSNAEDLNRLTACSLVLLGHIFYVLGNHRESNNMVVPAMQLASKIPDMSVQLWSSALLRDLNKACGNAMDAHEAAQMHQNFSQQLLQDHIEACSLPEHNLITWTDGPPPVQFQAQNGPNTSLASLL

Consider “Nipped-B-like protein (Homo sapiens), Q6KC79 G15R”, for which the “effect of a mutation on the interaction” value is reported as “decreasing interaction strength”. As for “Nipped-B-like protein (Homo sapiens), Q6KC79 P29Q”, the entry is “decreasing interaction strength”.
